Experimental data from article doi:10.1101/332304 (bioRxiv, 2018).

Target: T1, (NPNA)2 peptide (Plasmodium falciparum)
T1 chain: NPNANPNA
Assay: ITC

binding result: binds
B1: Fab311 inter-Fab contact residue reverted (Fab311R) (Fab, V domains shown)
VH: QVQLVESGGGVVPPGRSLRLSCATSGFTFSSYGMHWVRQAPGKGLEWVAIIWYDGSNKFYAASVKGRFTISRDNSKNTLYLQMNSLRVEDTAVYYCARAAYYDTSGYGDYWGQGTLVTVSS
VL: QSVLTQPPSVSGAPGQTVTISCTGGSSNIGAGYDVHWYQQLPGTAPKLLIYGNINRPSGVPDRFSGSKSGTSASLAITGLQAEDEADYYCQSYDSSLSGSWVFGGGTKLTVL
